Source: patent US20240368275A1 (ELPIS BIOPHARMACEUTICALS, published 2024)

T1: human Nectin4-HIS tagged recombinant protein (human, UniProt Q96NY8 32-349)
T1 construct: also called hNectin4-HIS; Nectin4 HIS tagged protein; not shown: HIS tag
T1 sequence (looked up): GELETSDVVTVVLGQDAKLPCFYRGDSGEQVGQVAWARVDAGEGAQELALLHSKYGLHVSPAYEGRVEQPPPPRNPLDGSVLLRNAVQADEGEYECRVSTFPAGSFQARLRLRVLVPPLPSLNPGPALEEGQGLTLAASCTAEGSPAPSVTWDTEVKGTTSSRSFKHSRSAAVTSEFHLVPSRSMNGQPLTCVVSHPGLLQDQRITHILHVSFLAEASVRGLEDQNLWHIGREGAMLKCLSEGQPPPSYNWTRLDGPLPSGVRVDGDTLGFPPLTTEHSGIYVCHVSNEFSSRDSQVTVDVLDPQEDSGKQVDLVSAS

T2: full-length human Nectin4 with C-terminal flag and Myc tags on CHO cells (human, UniProt Q96NY8 32-510)
T2 construct: whole, on cells; also called Nectin4/CHO; CHO/Nectin4; not shown: C-terminal flag and Myc tags of pCMV6-Entry vector
T2 sequence (looked up): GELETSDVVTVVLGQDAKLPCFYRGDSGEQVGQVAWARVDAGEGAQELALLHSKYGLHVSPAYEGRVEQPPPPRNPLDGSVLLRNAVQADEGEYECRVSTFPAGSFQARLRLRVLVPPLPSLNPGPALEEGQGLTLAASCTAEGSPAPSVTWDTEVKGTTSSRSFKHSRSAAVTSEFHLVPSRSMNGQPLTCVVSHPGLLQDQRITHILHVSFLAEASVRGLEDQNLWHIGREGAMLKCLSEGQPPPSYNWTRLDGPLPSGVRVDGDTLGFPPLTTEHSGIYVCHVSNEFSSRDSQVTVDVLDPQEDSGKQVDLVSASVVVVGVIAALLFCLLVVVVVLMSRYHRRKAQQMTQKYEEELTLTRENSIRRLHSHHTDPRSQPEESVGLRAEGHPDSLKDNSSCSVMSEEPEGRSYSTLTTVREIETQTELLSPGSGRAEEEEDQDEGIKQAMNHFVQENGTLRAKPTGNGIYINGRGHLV


What was measured:
[1] = target: T1, human Nectin4-HIS tagged recombinant …; experiment: ELISA, coated human Nectin4-HIS, IgG titrated, anti-hFc HRP
Experimental: An ELISA assay was developed to determine the EC₅₀ of exemplary anti-Nectin4 IgG antibodies. Briefly, 384 well plate was immobilized with human Nectin4-HIS tagged recombinant protein at final concentration of 2 ug/mL in 1×PBS in total volume of 25 uL per well. The plate was incubated overnight at 4° C. followed by blocking with 80 uL of superblock per well for 1 hour. Titration of purified anti-Nectin4 IgG starting at 200 nM 2-fold serial dilution, 25 uL was added to human Nectin4 immobilized wells and incubated for 1 hour with shaking. The Nectin4 binding was detected by adding 25 uL of anti-hFc HRP diluted at 1:5000 in 1×PBST. In between each step, the plate was washed 3 times with 1×PBST in a plate washer. The plate was then developed with 20 ul of TMB substrate for 5 mins and stopped by adding 20 ul of 2N sulfuric acid. The plate was read at OD450 nm Biotek plate reader and then plotted in Prism 8.1 software.

[2] = target: T2, full-length human Nectin4 with …; experiment: flow cytometry, IgG on Nectin4/CHO cells, anti-hFc Alexa fluor 647
Experimental: 200 nM of purified anti-Nectin4 IgG antibodies were diluted in full medium and incubated with Nectin4/CHO and CHO cells in 96 wells plate on ice for 1 hour. Cells were spun down at 1200 rpm for 5 minutes at 4° C. to remove primary antibodies. Cells were then washed once with 200 uL of full medium per well. Samples were detected with anti-hFc Alexa fluor 647 by adding 100 uL of diluted secondary antibody and incubated at 4° C. for 30 minutes in the dark. Samples were spun down at 1200 rpm for 5 minutes at 4° C. and washed twice with 200 uL of 1×PBS per well. Reconstituted samples in 200 uL of 1×PBS and read on Attune NxT cytometer. Analysis was done by Attune NxT software plotting the overlay histogram of […] proteins binding onto both negative and target cell lines.

[3] = target: T1, human Nectin4-HIS tagged recombinant …; experiment: ELISA, coated Nectin4 HIS tagged protein, bispecific titrated, anti-Human HRP
Experimental: An ELISA assay was developed to determine the EC₅₀ of anti-Nectin4/CD3 bispecific antibodies. Briefly, 384 well plate was immobilized with human CD3E or Nectin4 HIS tagged protein at final concentration of 2 ug/mL in 1×PBS in total volume of 25 uL per well. The plate was incubated overnight at 4° C. followed by blocking with 80 uL of superblock per well for 1 hour. Purified anti-Nectin4/CD3 was 3-fold serial titrated from 100 nM. 25 uL was added to human Nectin4/CD3 immobilized wells and incubated for 1 hour with shaking. The CD3E or Nectin4 binding was detected by adding 25 uL of anti-Human HRP diluted at 1:10000 in 1×PBST. In between each step, the plate was washed 3 times with […] in a plate washer. The plate was then developed with 20 ul of TMB substrate for 5 mins and stopped by adding 20 ul of 2N sulfuric acid. The plate was read at OD450 nm Biotek plate reader and then plotted in Prism 8.1 software to calculate EC50.

[4] = target: T2, full-length human Nectin4 with …; experiment: flow cytometry on CHO/Nectin4 cells
Experimental: Nectin4/CHO Nectin4 cells were plated at 100,000 cells/well in a 96-well plate in 50 μL of full media. Cells were rested 1 hour at 37° C. Anti-Nectin4/CD3 was 3-fold serial titrated from 50 nM. 50 μL was added to the cells and incubated for 1 hours with shaking. Samples were washed one time with flow buffer. […] Samples were washed once with flow buffer. Samples were stained with 100 uL Zombie Fixable Viability Dyes (1:800 dilution) per well and incubated in dark at room temperature for 30 mins. Samples were spun down at 1200 rpm for 5 minutes and washed once with 200 uL flow buffer. Reconstituted samples in 200 uL of flow buffer and read on Attune NxT cytometer. EC₅₀ values for Nectin4 Binding were determined using Prism software.

CD3 on Jurkat cells = target: T3, CD3 on Jurkat cells (UniProt P07766 23-207, limits assumed); experiment: flow cytometry on Jurkat cells
T3 construct: whole, on cells; the whole CD3/TCR complex stands on the cells; also called Jurkat CD3
Experimental: Jurkat cells were plated at 100,000 cells/well in a 96-well plate with 50 μL of full media. Anti-Nectin4/CD3 antibodies were 3-fold serial titrated from 20 nM. 50 μL was added to the cells and incubated for 1 hours at room temperature with shaking. Samples were washed one time with flow buffer. […] Samples were washed once with flow buffer. Samples were stained with 100 uL Zombie Fixable Viability Dyes at 1:800 dilution per well and incubated in dark at room temperature for 30 mins. Samples were spun down at 1300 rpm for 5 minutes and washed once with 200 uL flow buffer. Reconstituted samples in 200 uL of flow buffer and read on Attune NxT cytometer. EC50 values for CD3 binding were calculated using Prism 8.1 software.
Similar methods of above mentioned were used to measure the binding activities of anti-Nectin4/CD3/IL-2 complexes to CHO/Nectin4 and Jurkat cells, respectively.

T3 sequence (P07766 23-207 limits assumed): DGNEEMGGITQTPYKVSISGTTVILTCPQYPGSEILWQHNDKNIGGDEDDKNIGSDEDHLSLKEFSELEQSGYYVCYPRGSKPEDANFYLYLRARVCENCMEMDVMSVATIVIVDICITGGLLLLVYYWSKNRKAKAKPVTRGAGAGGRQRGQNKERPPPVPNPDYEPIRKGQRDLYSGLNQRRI

Row | Binder | EC50 [1] | EC50 [2] | EC50 [3] | EC50 [4] | binding result (CD3 on Jurkat cells)
1 | 2020EP47-F02 IgG (EP544/EP545) (antibody, V domains shown, Human IgG1 with lambda light chain; entries without signal peptide used) VH: QVQLQQWGAGLLKPSETLSLTCAVYGGSFSGYYWSWIRQPPGKGLEWIGEINHSGSTNYNPSLKSRVTISVDTSKNQFSLKLSSVTAADTAVYYCARGWYLGFDYWGQGTLVTVSS VL: QSVLTQPRSVSGSPGQSVTISCTGTSRDVGGYDYVSWYQQYPGKAPKLMISGVSERPSGVPDRFTGSRSANTASLTISGLQTDDEANYYCCSYAGSFTWVFGDGTKLTVLG | 0.119 nM | 0.125 nM | – | – | –
2 | EP499/EP378/EP289 anti-Nectin4/CD3 bispecific antibody (bispecific antibody, Bivalent for Nectin4; EP499 carries a humanized SP34 scFv between CH1 and hinge, hole; also called EP499/378/289) heavy 1: EVQLVQSGAEVKKPGASVKVSCKASGYTFTGYYMHWVRQAPGQGLEWMGRINPNSGGTNYAQKFQGRVTMTRDTSISTAYMELSGLRSDDTAVYFCARVTYNIGWYIDYWGQGTLVTVSSASTKGPSVFPLAPSSKSTSGGTAALGCLVKDYFPEPVTVSWNSGALTSGVHTFPAVLQSSGLYSLSSVVTVPSSSLGTQTYICNVNHKPSNTKVDKKVEPKSCDGGGGSGGGGSEVQLVESGGGLVQPGGSLRLSCAASGFTFNTYAMNWVRQAPGKGLEWVARIRSKYNNYATYYAASVKGRFTISRDDSKNSLFLQMNSLKTEDTAVYYCVRHGNFGNSYVSWFAYWGQGTLVTVSSGGGGSGGGGSGGGGSGGGGSQTVVTQEPSLTVSPGGTVTLTCRSSTGAVTTSNYANWVQEKPDHLFTGLIGGTNKRAPGVPARFSGSLLGGKAALTLSGVQPEDEAIYFCALWYSNLWVFGSGTKVTVLEPKSCDKTHTCPPCPAPEAAGGPSVFLFPPKPKDTLMISRTPEVTCVVVDVSHEDPEVKFNWYVDGVEVHNAKTKPREEQYNSTYRVVSVLTVLHQDWLNGKEYKCKVSNKALGAPIEKTISKAKGQPREPQVCTLPPSRDELTKNQVSLSCAVKGFYPSDIAVEWESNGQPENNYKTTPPVLDSDGSFKLVSKLTVDKSRWQQGNVFSCSVMHEALHNHYTQKSLSLSPGK heavy 2: not shown light: QAVVTQPPSVSVAPGKTATITCGGNNIGSKGVHWYQQKPGQAPVLVIYYDTDRPSGIPERLSGSNSGNTATLTISRVEAGDEADYYCQVWDSSSDHPVFGGGTKLTVLGQPKANPTVTLFPPSSEELQANKATLVCLISDFYPGAVTVAWKADGSPVKAGVETTKPSKQSNNKYAASSYLSLTPEQWKSHRSYSCQVTHEGSTVEKTVAPTECS | – | – | 0.025 nM | 0.235 nM | –
3 | EP697/EP378/EP289 anti-Nectin4/CD3 bispecific antibody (bispecific antibody, EP697: two residue mutations within HCDR2 and a single point mutation within HCDR3 of the anti-CD3 scFv of EP500; also called EP697/378/289) heavy 1: EVQLVQSGAEVKKPGASVKVSCKASGYTFTGYYMHWVRQAPGQGLEWMGRINPNSGGTNYAQKFQGRVTMTRDTSISTAYMELSGLRSDDTAVYFCARVTYNIGWYIDYWGQGTLVTVSSASTKGPSVFPLAPSSKSTSGGTAALGCLVKDYFPEPVTVSWNSGALTSGVHTFPAVLQSSGLYSLSSVVTVPSSSLGTQTYICNVNHKPSNTKVDKKVEPKSCDGGGGSGGGGSEVQLVESGGGLVQPGGSLRLSCAASGFTFNTYAMNWVRQAPGKGLEWVARIRSKANAYATYYAASVKGRFTISRDDSKNSLFLQMNSLKTEDTAVYYCVRHGNFGNSAVSWFAYWGQGTLVTVSSGGGGSGGGGSGGGGSGGGGSQAVVTQEPSLTVSPGGTVTLTCASSTGAVTTSNYANWVQEKPDHLFTGLIGGTNKRAPGVPARFSGSLLGGKAALTLSGVQPEDEAEYYCALWYSNLWVFGGGTKLTVLEPKSCDKTHTCPPCPAPEAAGGPSVFLFPPKPKDTLMISRTPEVTCVVVDVSHEDPEVKFNWYVDGVEVHNAKTKPREEQYNSTYRVVSVLTVLHQDWLNGKEYKCKVSNKALGAPIEKTISKAKGQPREPQVCTLPPSRDELTKNQVSLSCAVKGFYPSDIAVEWESNGQPENNYKTTPPVLDSDGSFKLVSKLTVDKSRWQQGNVFSCSVMHEALHNHYTQKSLSLSPGK heavy 2: not shown light: QAVVTQPPSVSVAPGKTATITCGGNNIGSKGVHWYQQKPGQAPVLVIYYDTDRPSGIPERLSGSNSGNTATLTISRVEAGDEADYYCQVWDSSSDHPVFGGGTKLTVLGQPKANPTVTLFPPSSEELQANKATLVCLISDFYPGAVTVAWKADGSPVKAGVETTKPSKQSNNKYAASSYLSLTPEQWKSHRSYSCQVTHEGSTVEKTVAPTECS | – | – | – | – | no binding
4 | EP500/EP378/EP289 anti-Nectin4/CD3 bispecific antibody (bispecific antibody, Bivalent for Nectin4; EP500 carries a humanized SP34 scFv between CH1 and hinge, hole; template of EP695, EP696 and EP697; also called EP500/378/289) heavy 1: EVQLVQSGAEVKKPGASVKVSCKASGYTFTGYYMHWVRQAPGQGLEWMGRINPNSGGTNYAQKFQGRVTMTRDTSISTAYMELSGLRSDDTAVYFCARVTYNIGWYIDYWGQGTLVTVSSASTKGPSVFPLAPSSKSTSGGTAALGCLVKDYFPEPVTVSWNSGALTSGVHTFPAVLQSSGLYSLSSVVTVPSSSLGTQTYICNVNHKPSNTKVDKKVEPKSCDGGGGSGGGGSEVQLVESGGGLVQPGGSLRLSCAASGFTFNTYAMNWVRQAPGKGLEWVARIRSKYNNYATYYAASVKGRFTISRDDSKNSLFLQMNSLKTEDTAVYYCVRHGNFGNSYVSWFAYWGQGTLVTVSSGGGGSGGGGSGGGGSGGGGSQAVVTQEPSLTVSPGGTVTLTCASSTGAVTTSNYANWVQEKPDHLFTGLIGGTNKRAPGVPARFSGSLLGGKAALTLSGVQPEDEAEYYCALWYSNLWVFGGGTKLTVLEPKSCDKTHTCPPCPAPEAAGGPSVFLFPPKPKDTLMISRTPEVTCVVVDVSHEDPEVKFNWYVDGVEVHNAKTKPREEQYNSTYRVVSVLTVLHQDWLNGKEYKCKVSNKALGAPIEKTISKAKGQPREPQVCTLPPSRDELTKNQVSLSCAVKGFYPSDIAVEWESNGQPENNYKTTPPVLDSDGSFKLVSKLTVDKSRWQQGNVFSCSVMHEALHNHYTQKSLSLSPGK heavy 2: not shown light: QAVVTQPPSVSVAPGKTATITCGGNNIGSKGVHWYQQKPGQAPVLVIYYDTDRPSGIPERLSGSNSGNTATLTISRVEAGDEADYYCQVWDSSSDHPVFGGGTKLTVLGQPKANPTVTLFPPSSEELQANKATLVCLISDFYPGAVTVAWKADGSPVKAGVETTKPSKQSNNKYAASSYLSLTPEQWKSHRSYSCQVTHEGSTVEKTVAPTECS | – | – | 0.022 nM | 0.234 nM | –
